Measurements published in publication PMC6826200, “An oligomeric state‐dependent switch in the ER enzyme FICD regulates AMPylation and deAMPylation of BiP” (The EMBO Journal, 2019).
Numbering of substitutions follows the chain as printed. In names and notes the source's numbering stands.

T1: biotinylated-AviTag-FICD^H363A (human, UniProt Q9BVA6 104-445, H363A, biotin on the AviTag)
T1 construct: FICD (HYPE), human, residues 104-445 (the limits are those told for all purified FICD proteins); also called N-terminally biotinylated FICD^H363A; UK 2422; not shown: AviTag, N-terminal, kept
T1 sequence (looked up): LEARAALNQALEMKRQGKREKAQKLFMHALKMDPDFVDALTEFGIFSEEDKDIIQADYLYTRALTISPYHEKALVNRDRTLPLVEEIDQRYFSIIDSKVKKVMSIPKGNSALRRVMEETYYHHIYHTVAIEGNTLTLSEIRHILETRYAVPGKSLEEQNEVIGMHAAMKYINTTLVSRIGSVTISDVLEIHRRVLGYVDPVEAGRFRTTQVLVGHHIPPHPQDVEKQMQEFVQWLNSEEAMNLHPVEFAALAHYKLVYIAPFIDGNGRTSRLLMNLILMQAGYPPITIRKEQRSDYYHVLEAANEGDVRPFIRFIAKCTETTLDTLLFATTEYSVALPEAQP

B1: catalytically inactive, dimeric FICD^H363A (residues 104-445) (domain or fragment, human, UniProt Q9BVA6 104-445, looked up)
chain: T1 sequence (looked up)
notes: FICD (HYPE), human, residues 104-445; Dimeric as analyte on BiP; in the rows with m14 and m15 one of its protomers pairs with one labelled protomer; also called dFICD^H363A; UK 1954; source: E. coli T7 Express lysY/Iq, purified (Ni-NTA, on-column Ulp1 cleavage, anion exchange, SEC)
B2: FICD^K256S (residues 104-445) (domain or fragment, human, UniProt Q9BVA6 104-445, looked up)
chain: T1 sequence (looked up) with K153S, A260H
notes: FICD (HYPE), human, residues 104-445; also called Lys256Ser; dimer relay mutant; source: E. coli T7 Express lysY/Iq, purified (Ni-NTA, on-column Ulp1 cleavage, anion exchange, SEC)
B3: FICD^E242A (residues 104-445) (domain or fragment, human, UniProt Q9BVA6 104-445, looked up)
chain: T1 sequence (looked up) with E139A, A260H
notes: FICD (HYPE), human, residues 104-445; also called dimer relay mutant; source: E. coli T7 Express lysY/Iq, purified (Ni-NTA, on-column Ulp1 cleavage, anion exchange, SEC)
B4: FICD^G299S (residues 104-445) (domain or fragment, human, UniProt Q9BVA6 104-445, looked up)
chain: T1 sequence (looked up) with G196S, A260H
notes: FICD (HYPE), human, residues 104-445; also called Gly299Ser; source: E. coli T7 Express lysY/Iq, purified (Ni-NTA, on-column Ulp1 cleavage, anion exchange, SEC)
B5: wild-type FICD (amino acid residues 104-445) (domain or fragment, human, UniProt Q9BVA6 104-445, looked up)
chain: T1 sequence (looked up) with A260H
notes: FICD (HYPE), human, residues 104-445; Homodimer in solution; its rows measure this dimerisation, so copies is left empty; also called HYPE; dFICD; source: E. coli T7 Express lysY/Iq, purified (Ni-NTA, on-column Ulp1 cleavage, anion exchange, SEC)
B6: FICD^K256A (residues 104-445) (domain or fragment, human, UniProt Q9BVA6 104-445, looked up)
chain: T1 sequence (looked up) with K153A, A260H
notes: FICD (HYPE), human, residues 104-445; also called dimeric dimer relay mutant FICD^K256A; source: E. coli T7 Express lysY/Iq, purified; gel-filtered into 10 mM Tris-HCl pH 8.0, 150 mM NaCl, 1 mM TCEP for crystallisation
B7: non-oxidised FICD^A252C-C421S (residues 104-445) (domain or fragment, human, UniProt Q9BVA6 104-445, looked up)
chain: T1 sequence (looked up) with A149C, A260H, C318S
notes: FICD (HYPE), human, residues 104-445; also called non-disulphide-bonded FICD^A252C-C421S; UK 2219; source: E. coli T7 Express lysY/Iq, purified; a separate preparation not subjected to oxidation with glutathione
B8: cysteine-free FICD^C421S (residues 104-445) (domain or fragment, human, UniProt Q9BVA6 104-445, looked up)
chain: T1 sequence (looked up) with A260H, C318S
notes: FICD (HYPE), human, residues 104-445; also called UK 2161; source: E. coli T7 Express lysY/Iq, purified by the protocol of the disulphide-linked dimers
B9: catalytically inactive, monomeric FICD^L258D-H363A (residues 104-445) (domain or fragment, human, UniProt Q9BVA6 104-445, looked up)
chain: T1 sequence (looked up) with L155D
notes: FICD (HYPE), human, residues 104-445; also called mFICD^H363A; source: E. coli T7 Express lysY/Iq, purified (Ni-NTA, on-column Ulp1 cleavage, anion exchange, SEC)
B10: FICD^S288C-H363A-C421S-TMR (dimerisation-sensitive fluorescent probe) (domain or fragment, human, UniProt Q9BVA6 104-445, looked up)
chain: T1 sequence (looked up) with S185C, C318S
modifications: tetramethylrhodamine (TMR-5-maleimide) on Cys288 (labelling efficiency 41%); unlabelled cysteines quenched with NEM
notes: FICD (HYPE), human, residues 104-445; also called FICD-TMR; UK 2473
B11: Oregon Green-labelled FICD^NC (wild-type FICD carrying an N-terminal cysteine) (domain or fragment, human)
chain: CLEARAALNQALEMKRQGKREKAQKLFMHALKMDPDFVDALTEFGIFSEEDKDIIQADYLYTRALTISPYHEKALVNRDRTLPLVEEIDQRYFSIIDSKVKKVMSIPKGNSALRRVMEETYYHHIYHTVAIEGNTLTLSEIRHILETRYAVPGKSLEEQNEVIGMHAAMKYINTTLVSRIGSVTISDVLEIHRRVLGYVDPVEAGRFRTTQVLVGHHIPPHPQDVEKQMQEFVQWLNSEEAMNLHPVEFAALAHYKLVYIHPFIDGNGRTSRLLMNLILMQAGYPPITIRKEQRSDYYHVLEAANEGDVRPFIRFIAKCTETTLDTLLFATTEYSVALPEAQP
modifications: Oregon Green 488 on the N-terminal cysteine (labelling efficiency 74%)
notes: N-terminal cysteine added for site-specific labelling; FICD (HYPE), human, residues 104-445; also called UK 2339; source: E. coli, purified, labelled with Oregon Green 488-iodoacetamide, SEC

Key:
[1] = molecular target: T2, biotinylated-AviTag-haBiP^T229A-V461F (Chinese hamster, UniProt G3I8R9 19-654, T229A | V461F, biotin on the AviTag); assay: BLI; biotinylated BiP^T229A-V461F immobilised on streptavidin biosensors and saturated with 2 mM ATP; FICD His363Ala variants at 250 nM, association or dissociation without nucleotide or with ATP 8 mM or ADP 2 mM; HKM plus 0.05% Triton X-100, 30°C; settings: both partners purified
T2 construct: BiP, Chinese hamster; Immobilised nucleotide-free and, where indicated, saturated with 2 mM ATP on the sensor; also called BiP^T229A-V461F:Apo; BiP:ATP
T2 sequence (G3I8R9 19-654 T229A/V461F): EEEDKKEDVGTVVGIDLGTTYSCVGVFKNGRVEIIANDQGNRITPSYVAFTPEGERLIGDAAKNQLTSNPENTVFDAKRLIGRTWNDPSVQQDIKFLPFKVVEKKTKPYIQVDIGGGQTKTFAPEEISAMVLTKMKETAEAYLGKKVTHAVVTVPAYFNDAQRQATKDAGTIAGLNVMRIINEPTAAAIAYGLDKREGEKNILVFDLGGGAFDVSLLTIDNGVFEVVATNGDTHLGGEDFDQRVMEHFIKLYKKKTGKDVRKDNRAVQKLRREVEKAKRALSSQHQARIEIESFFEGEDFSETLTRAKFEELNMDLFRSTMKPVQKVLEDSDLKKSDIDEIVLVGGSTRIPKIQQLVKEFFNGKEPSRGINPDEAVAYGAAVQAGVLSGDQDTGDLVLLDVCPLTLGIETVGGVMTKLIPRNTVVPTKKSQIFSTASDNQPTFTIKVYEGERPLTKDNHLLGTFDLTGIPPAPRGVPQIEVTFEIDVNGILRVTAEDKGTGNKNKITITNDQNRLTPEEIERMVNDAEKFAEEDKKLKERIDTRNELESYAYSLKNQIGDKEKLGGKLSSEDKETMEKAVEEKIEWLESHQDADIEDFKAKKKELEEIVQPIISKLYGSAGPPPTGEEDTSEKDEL

[2] = molecular target: B10; assay: other fluorescence titration; 2.5 nM FICD^S288C-H363A-C421S-TMR with unlabelled FICD or nucleotide as titrant in HKTx, 45 min at 10°C; de-quenching of TMR fluorescence (excitation 535 nm, emission 585 nm); settings: both partners purified
[3] = molecular target: T1, biotinylated-AviTag-FICD^H363A; assay: BLI; 3 nM biotinylated-AviTag-FICD^H363A incubated 10 min at 25°C with 300 nM FICD^H363A, hetero-labelled dimers loaded on streptavidin biosensors; dissociation into HKTx with or without 5 mM nucleotide; signal of sensors incubated with FICD^L258D-H363A subtracted; dimer to monomers; settings: both partners purified
[4] = molecular target: the molecule itself; assay: crystal structure; sitting drop vapour diffusion, protein at 9 mg/ml in 10 mM Tris-HCl pH 8.0, 150 mM NaCl, 1 mM TCEP, with 10 mM MgATP or MgAMPPNP where applicable
[5] = molecular target: the molecule itself; assay: SEC; analytical SEC-3 HPLC column in HKMC (50 mM HEPES-KOH pH 7.4, 150 mM KCl, 10 mM MgCl2, 1 mM CaCl2), 25°C; proteins at 20 μM, or at 0.2-50 μM after 16 h at 25°C; approximate Kd from elution peak time against concentration; dimer to monomers
[6] = molecular target: the molecule itself; assay: other fluorescence titration; 2.5 nM FICD^S288C-H363A-C421S-TMR with unlabelled FICD or nucleotide as titrant in HKTx, 45 min at 10°C; de-quenching of TMR fluorescence (excitation 535 nm, emission 585 nm)
[7] = molecular target: the molecule itself; assay: AUC; fluorescence-detected sedimentation velocity; Oregon Green-labelled FICD from 1.6 μM to 31 pM; 50 mM HEPES-KOH pH 7.4, 150 mM KCl, 10 mM MgCl2, 1 mM CaCl2, 0.3 mM TCEP, 0.1% Tween-20, 0.15 mg/ml BSA; 45,000 rpm, 20°C; monomer-dimer isotherm of signal-averaged s; dimer to monomers

Binder: B1
binding result [1]: binds
binding result [2]: binds
fold increase of the dimer dissociation rate with 5 mM ATP against no nucleotide [3]: 3 fold

Binder: B2
stoichiometry N [4]: 2 molecules in the biological unit
Kd [5]: < 400 nM

Binder: B3
Kd [5]: < 400 nM

Binder: B4
Kd [5]: 9500 nM

Binder: B5
stoichiometry N [4]: 2 molecules in the biological unit
stoichiometry N [5]: 2

Binder: B6
stoichiometry N [4]: 2 molecules in the biological unit

Binder: B7
binding result [5]: binds

Binder: B8
binding result [5]: binds

Binder: B9
binding result [1]: binds

Binder: B10
binding result [6]: binds

Binder: B11
Kd [7]: 1.2 nM
